± gives the uncertainty stated by the source.
Experiment: self-splicing fitness, log relative to wild type (ln ratio); higher = more splicing; Tetrahymena group I intron in knt gene, E. coli kanamycin selection, DiMSum; sequences stand for … in CUCUCU…GGAGGGAAAAGUUAUCAGGCAUGCACCUGGUAGCUAGUCUUUAAACCAAUAGAUUGCAUCGGUUUAAAAGGCAAGACCGUCAAAUUGCGGGAAAGGGGUCAACAGCCGUUCAGUACCAAGUCUCAGGGGAAACUUUGAGAUGGCCUUGCAAAGGGUAUGGUAAUAAGCUGACGGACAUGGUCCUAACCACGCAGCCAAGUCCUAAGUCAACAGAUCUUCUGUUGAUAUGGAUGCAGUUCACAGACUAAAUGUCGGUCGGGGAAGAUGUAUUCUUCUCAUAAGAUAUAGUCGGACCUCUCCUUAAUGGGAGCUAGCGGAUGAAGUGAUGCAACACUGGAGCCGCUGGGAACUAAUUUGUAUGCGAAAGUAUAUUGAUUAGUUUUGGAGUACUCGUGGUCG
Outline: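 The eight P1ex-region nucleotides of an intron in the knt kanamycin-resistance gene on pET-22b(+) were all randomised and the library put into E. coli BL21(DE3). Six replicate transformations were grown overnight at 37°C or 30°C on LB agar with or without 25 μg/mL kanamycin, together with 100 μg/mL carbenicillin, 50 μM IPTG and 0.2% rhamnose. Colonies were pooled and amplicon-sequenced on an Illumina HiSeq 2500. Fitness from DiMSum is the error-weighted combination of wild-type-normalised replicate fold changes, kanamycin over none.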

Sequence | self-splicing fitness (ln) (30 °C) | self-splicing fitness (ln) (37 °C)
AGUAAGCAAUAUUACGCGGG | -2.82 ± 0.29 | -2.13 ± 0.29
UUCAAGCAAUAUUACGAAAA | -0.341 ± 0.15 | -0.222 ± 0.18
AACGAGCAAUAUUACGAAAG | -2.83 ± 0.48 | -1.43 ± 0.32
UGUCAGCAAUAUUACGAGCU | -0.801 ± 0.088 | -0.417 ± 0.11
UCAGAGCAAUAUUACGAAUA | -2.84 ± 0.32 | -2.14 ± 0.38
UUGAAGCAAUAUUACGCCUC |  | -1.63 ± 0.42
UACUAGCAAUAUUACGACUA | 0.113 ± 0.097 | 0.792 ± 0.11
UUAUAGCAAUAUUACGGCUG | 0.0456 ± 0.07 | 0.442 ± 0.1
UAUAAGCAAUAUUACGAUCA | -0.251 ± 0.1 | 0.847 ± 0.11
CCAGAGCAAUAUUACGAGUU | -1.94 ± 0.14 | -2.9 ± 0.27
GUGCAGCAAUAUUACGUUUU | -2.08 ± 0.096 | -1.69 ± 0.096
AAAAAGCAAUAUUACGUUAU | -2.13 ± 0.071 | -1.55 ± 0.1
GCAAAGCAAUAUUACGAGGG | -3.02 ± 0.11 | -1.55 ± 0.1
UGUAAGCAAUAUUACGUCGA | -1.42 ± 0.1 | -0.213 ± 0.12
CUGCAGCAAUAUUACGUCAA | -3.08 ± 0.17 | -1.47 ± 0.12
CCCCAGCAAUAUUACGCUUA | -3.59 ± 0.17 | -2.66 ± 0.17
UUUGAGCAAUAUUACGACAA | -1.26 ± 0.16 | -0.94 ± 0.17
UCGGAGCAAUAUUACGGCGU | -1.82 ± 0.22 | -0.847 ± 0.16
UCAUAGCAAUAUUACGGUAG | -3.28 ± 0.23 | -1.77 ± 0.17
AACUAGCAAUAUUACGCUUG | -2.18 ± 0.11 | -1.16 ± 0.12
GUAAAGCAAUAUUACGAAGA | -1.9 ± 0.1 | -1.03 ± 0.12
UAGCAGCAAUAUUACGACGU | -1.14 ± 0.073 | -0.658 ± 0.1
UUAAAGCAAUAUUACGCCUG | 0.63 ± 0.16 | 1 ± 0.17
AACCAGCAAUAUUACGAGCG | -1.14 ± 0.072 | -0.281 ± 0.084
AGGUAGCAAUAUUACGGGAC | -3.462 ± 0.028 | -2.15 ± 0.039

Sequence | self-splicing fitness (ln) (30 °C) | self-splicing fitness (ln) (37 °C)
AAAGAGCAAUAUUACGGUCG | -2.47 ± 0.16 | -1.58 ± 0.15
AACGAGCAAUAUUACGAGUA | -3.14 ± 0.17 | -2.12 ± 0.14
ACGUAGCAAUAUUACGCACG | -2.31 ± 0.2 | -1.98 ± 0.19
CUCUAGCAAUAUUACGGGCA | -2.62 ± 0.23 | -2.29 ± 0.23
UCUCAGCAAUAUUACGCUGC | -3.83 ± 0.21 | -2.06 ± 0.17
UUCUAGCAAUAUUACGUACA | -1.39 ± 0.19 | -0.376 ± 0.22
CCUCAGCAAUAUUACGUCAA | -4.15 ± 0.31 | -3.11 ± 0.29
UAUUAGCAAUAUUACGUUGA | -3.32 ± 0.29 | -2.17 ± 0.23
UCCGAGCAAUAUUACGUGGC | -3.27 ± 0.24 | -2.52 ± 0.33
UAGGAGCAAUAUUACGUGUC | -3.27 ± 0.34 | -1.82 ± 0.27
GUCGAGCAAUAUUACGGAAU | -2.48 ± 0.16 | -1.12 ± 0.14
GCCCAGCAAUAUUACGUUGU | -0.273 ± 0.044 | 0.021 ± 0.056
AGGUAGCAAUAUUACGCGCA | -0.305 ± 0.016 | 0.00281 ± 0.034
GUAUAGCAAUAUUACGGCGA | -1.21 ± 0.097 | -0.087 ± 0.1
ACCCAGCAAUAUUACGGGUG | -2.14 ± 0.061 | -0.937 ± 0.058
CGCCAGCAAUAUUACGGCAG | -2.3 ± 0.11 | -1.02 ± 0.12
GCAAAGCAAUAUUACGUCGC | -1.48 ± 0.16 | -2.45 ± 0.27
AGGCAGCAAUAUUACGGUAG | -3.33 ± 0.25 | -2.66 ± 0.29
UAACAGCAAUAUUACGGCCA | -0.28 ± 0.066 | -0.439 ± 0.071
UACAAGCAAUAUUACGCGGA | -1.85 ± 0.092 | -1.21 ± 0.098
UAAUAGCAAUAUUACGGGAG | -2.84 ± 0.17 | -3.3 ± 0.22
GUUGAGCAAUAUUACGUUCG | -1.34 ± 0.086 | -1.67 ± 0.11
CUAUAGCAAUAUUACGGGUG | -0.36 ± 0.061 | 0.369 ± 0.085
GGUGAGCAAUAUUACGGGUU |  | -2.59 ± 0.36
UCGAAGCAAUAUUACGACGC | 0.247 ± 0.19 | -0.514 ± 0.2

Sequence | self-splicing fitness (ln) (30 °C) | self-splicing fitness (ln) (37 °C)
UAGGAGCAAUAUUACGCUGC | -3.05 ± 0.41 | -1.03 ± 0.42
CGUCAGCAAUAUUACGUAAA | -1.97 ± 0.06 | -1.21 ± 0.097
GACUAGCAAUAUUACGCGCG | 0.097 ± 0.11 | -0.349 ± 0.11
GCGGAGCAAUAUUACGCACU | -2.62 ± 0.14 | -2.79 ± 0.18
CUGGAGCAAUAUUACGGCGU | -2.77 ± 0.18 | 
UCUUAGCAAUAUUACGAAUG | -2.87 ± 0.43 | -2.01 ± 0.38
GGAAAGCAAUAUUACGUACA | -0.523 ± 0.14 | 6.9e-05 ± 0.15
ACCUAGCAAUAUUACGAACG | -1.25 ± 0.12 | -1.07 ± 0.19
AGGUAGCAAUAUUACGCGGC | -4.05 ± 0.044 | -2.93 ± 0.048
GUCGAGCAAUAUUACGCUAG | -3.53 ± 0.21 | -1.93 ± 0.15
CUCAAGCAAUAUUACGAGGU |  | -1.19 ± 0.18
AAAAAGCAAUAUUACGAACA | -0.675 ± 0.092 | -0.407 ± 0.11
GCAGAGCAAUAUUACGGGAG | -2.81 ± 0.21 | -2.81 ± 0.32
UUACAGCAAUAUUACGAGCU | -3.55 ± 0.31 | -3.12 ± 0.34
AGAUAGCAAUAUUACGGUGG | -1.66 ± 0.12 | -2.23 ± 0.16
GGGGAGCAAUAUUACGGAAA |  | -0.21 ± 0.41
CGAUAGCAAUAUUACGUGAA | -4.38 ± 0.22 | -2.16 ± 0.16
AUCUAGCAAUAUUACGUUGA | -2.53 ± 0.11 | -1.7 ± 0.11
ACACAGCAAUAUUACGUUAA | -2.79 ± 0.13 | -2.12 ± 0.12
AGUCAGCAAUAUUACGAACG | 0.155 ± 0.087 | 0.717 ± 0.15
GUUAAGCAAUAUUACGGGCU | -4.09 ± 0.34 | -1.85 ± 0.2
AUUGAGCAAUAUUACGCUCG | -2.02 ± 0.33 | -0.869 ± 0.22
AGAUAGCAAUAUUACGCAGG | -1.91 ± 0.17 | -0.155 ± 0.19
ACAGAGCAAUAUUACGGGUC | -2.99 ± 0.18 | -2.89 ± 0.27
CACAAGCAAUAUUACGUGCU | -3.93 ± 0.18 | -2.79 ± 0.15

Sequence | self-splicing fitness (ln) (30 °C) | self-splicing fitness (ln) (37 °C)
UAAUAGCAAUAUUACGGUAG | -3.43 ± 0.14 | -2.05 ± 0.14
GUCAAGCAAUAUUACGGUUG | -5.24 ± 0.39 | -3.24 ± 0.21
CGUAAGCAAUAUUACGUGAU | -3.93 ± 0.31 | -2.57 ± 0.24
ACUUAGCAAUAUUACGUGAG | -0.348 ± 0.067 | -0.0975 ± 0.087
CUCCAGCAAUAUUACGGGGC | -4.13 ± 0.23 | -2.56 ± 0.17
GUUAAGCAAUAUUACGCAUA | -0.993 ± 0.091 | -0.274 ± 0.11
GCGUAGCAAUAUUACGGCGU | -4.1 ± 0.37 | -2.07 ± 0.28
CGUAAGCAAUAUUACGAAAU | -3.16 ± 0.27 | -1.86 ± 0.25
AUGGAGCAAUAUUACGCGAC | -1.94 ± 0.28 | -2.79 ± 0.43
AAAGAGCAAUAUUACGGUGA | -3.87 ± 0.22 | -1.93 ± 0.14
CCGGAGCAAUAUUACGGUCA | -4.22 ± 0.47 | 
CAGCAGCAAUAUUACGGUCG | 0.264 ± 0.053 | 0.584 ± 0.08
ACAUAGCAAUAUUACGCGUG | -2.8 ± 0.1 | -1.28 ± 0.12
CCUGAGCAAUAUUACGACUA | -2.81 ± 0.25 | -1.79 ± 0.24
UGAUAGCAAUAUUACGUAAU | -4.31 ± 0.46 | -1.99 ± 0.21
CUGGAGCAAUAUUACGGUCU | -4.34 ± 0.32 | -2.38 ± 0.29
CUGAAGCAAUAUUACGUUCG | 0.231 ± 0.06 | -0.181 ± 0.082
UCCGAGCAAUAUUACGAAGU |  | -1.4 ± 0.29
UGUAAGCAAUAUUACGUCAA | -2.57 ± 0.18 | -0.839 ± 0.16
AGCCAGCAAUAUUACGGAUC | -2.03 ± 0.1 | -1.25 ± 0.13
CAGCAGCAAUAUUACGGGGC | -3.66 ± 0.14 | -2.45 ± 0.15
GUUAAGCAAUAUUACGGUGU | -1.58 ± 0.11 | -0.8 ± 0.12

Source: the supplement of paper PMC7877785
